The target in test [1] is DCC I372R mutant, overexpressed in Cos7 cells (UniProt P70211). Put plainly: immunostaining of cells or tissue.
Test [2] addresses Deleted in Colorectal Cancer (DCC), wild type, overexpressed in Cos7 cells (UniProt P70211). Briefly: immunostaining of cells or tissue.

In the case of recombinant Draxin (ligand), the Draxin mean fluorescence on DCC+ cells in test [1] amounted to 0.72; in test [2] it was 0.95.

The values above are taken from doi:10.64898/2025.12.11.693717.
